Reference: article PMC7114193

Assays:
Details in all cases: modification not given
[1] = biological target: ACE2 (Homo sapiens), Q9BYF1; experiment: SPR
[2] = biological target: ACE2 (Homo sapiens), Q9BYF1; experiment: SPR; remark: listed apart in the source
[3] = biological target: ACE2 (Homo sapiens), Q9BYF1; experiment: SPR; remark: listed apart in the source
[4] = biological target: ACE2 (Homo sapiens), Q9BYF1; experiment: NMR
[5] = biological target: ACE2 (Homo sapiens), Q9BYF1; experiment: SPR; remark: listed apart in the source

Sequence of ACE2 (Homo sapiens), Q9BYF1 (Q9BYF1 18-740): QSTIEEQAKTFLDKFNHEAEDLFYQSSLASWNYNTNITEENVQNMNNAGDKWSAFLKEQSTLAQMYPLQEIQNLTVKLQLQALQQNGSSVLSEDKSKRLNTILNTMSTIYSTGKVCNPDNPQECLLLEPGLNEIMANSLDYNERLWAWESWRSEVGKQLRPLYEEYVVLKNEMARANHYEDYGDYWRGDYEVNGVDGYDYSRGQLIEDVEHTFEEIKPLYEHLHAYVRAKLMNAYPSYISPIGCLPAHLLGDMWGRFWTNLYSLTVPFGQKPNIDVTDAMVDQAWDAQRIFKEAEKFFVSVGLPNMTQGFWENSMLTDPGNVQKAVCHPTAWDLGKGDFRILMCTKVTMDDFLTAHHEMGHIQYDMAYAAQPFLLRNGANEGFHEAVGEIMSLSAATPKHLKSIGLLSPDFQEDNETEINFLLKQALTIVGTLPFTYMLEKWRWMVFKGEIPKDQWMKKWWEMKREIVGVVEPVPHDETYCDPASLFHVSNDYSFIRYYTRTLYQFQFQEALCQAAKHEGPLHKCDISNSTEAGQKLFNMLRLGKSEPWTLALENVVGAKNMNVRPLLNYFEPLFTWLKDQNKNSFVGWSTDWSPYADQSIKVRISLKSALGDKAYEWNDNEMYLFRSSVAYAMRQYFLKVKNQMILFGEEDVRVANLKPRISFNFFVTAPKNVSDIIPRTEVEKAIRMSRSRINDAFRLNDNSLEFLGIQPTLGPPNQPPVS

Binder | Kd [1] | Kd [2] | Kd [3] | Kd [4] | Kd [5]
CYWPLNDYGFYT [RBD-14 peptide, P59594] | 430 µM | 450 µM |  |  | 
YKYRYLRHGKLR [RBD-11 peptide, P59594] | 67 µM |  | 85 µM |  | 
YKYRYL [RBD-11b peptide] | 46 µM |  |  | 60 µM | 
TTGIGYQPYRVV [RBD-15 peptide, P59594] | 450 µM |  |  |  | 672 µM
